According to the supplement of paper PMC10724198:
± gives the standard deviation of the averaged measurements.

Tested on: Saccharomyces cerevisiae
Assay: protein stability index of tFT-peptide fusion (C-terminal peptide) (PSI (0-1 scale)); higher = more stable (slower turnover)
Conditions: genetic background: wild type; temperature: 30 C
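Also: PSI is a weighted mean of sequencing reads over stability bins, variants kept only with over 10 reads, mCherry proximal and sfGFP distal, peptide attached via GGGS linker.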

Compared with AWESVGVWWGDS, IINKRKKKKDKG is lower in protein stability index: 0.76 ± 0.043 for the first, 0.644 ± 0.019 for the second.

Compared with WVGGVVMVPVLL, KITKRTKKTKEN is higher in protein stability index: 0.542 ± 0.0094 for the first, 0.67086 ± 0.00056 for the second.

PNSTIVATKGVT and HKGRVRACVFGV are within error of each other in protein stability index: 0.648 ± 0.076 for the first, 0.666 ± 0.017 for the second.

Going from FRCPGFYVVIFP to FLDPFLTRRCVF, the protein stability index rises from 0.582 ± 0.0092 to 0.694 ± 0.055.

GACIRLLPSFGY and VHVMSPPPALPV are within error of each other in protein stability index: 0.6434 ± 0.0041 for the first, 0.659 ± 0.013 for the second.

SVRFPPTFTMTL and RSRVLALSCRSA are within error of each other in protein stability index: 0.701 ± 0.042 for the first, 0.641 ± 0.029 for the second.

SRARPPLLPFPP and STTIRTPSGMFR are within error of each other in protein stability index: 0.615 ± 0.061 for the first, 0.661 ± 0.0057 for the second.

GVFGLMVGWGWA and PLPIGLRHVKSE are within error of each other in protein stability index: 0.665 ± 0.083 for the first, 0.696 ± 0.018 for the second.

GDSPSGKPAERT and PSRPPGHPAPKP are within error of each other in protein stability index: 0.661 ± 0.065 for the first, 0.761 ± 0.063 for the second.

GGGGGGRAGVWG and KKKKEEKWSSAR are within error of each other in protein stability index: 0.687 ± 0.028 for the first, 0.709 ± 0.061 for the second.

PLTFRYQSHSAH and SASGARVEARMH are within error of each other in protein stability index: 0.702 ± 0.11 for the first, 0.6435 ± 0.0017 for the second.

AQCDAVPFMFCV and LLALQCSLFTPH are within error of each other in protein stability index: 0.663 ± 0.025 for the first, 0.678 ± 0.15 for the second.

YLRACDPPAVHR and GPPPPPRPPLPP are within error of each other in protein stability index: 0.67 ± 0.024 for the first, 0.665 ± 0.049 for the second.

SCTPPLPFFTSF and FSLPLSPRGDCP are within error of each other in protein stability index: 0.704 ± 0.028 for the first, 0.6991 ± 0.0014 for the second.

RETGTSVEQVRT and GLMRDKEMRMPK are the same in protein stability index: 0.68 ± 0.036 for the first, 0.68 ± 0.036 for the second.

SGIYQTTSYIKI and SSVSRIYTPSSL are within error of each other in protein stability index: 0.7505 ± 0.0029 for the first, 0.677 ± 0.12 for the second.

VGSSPYTVFVSG and KIDQLDHVGLYS are within error of each other in protein stability index: 0.747 ± 0.11 for the first, 0.674 ± 0.015 for the second.

LSFHSYLSPFYL and SLSRSFCRAHRS are within error of each other in protein stability index: 0.664 ± 0.051 for the first, 0.722 ± 0.047 for the second.

ISPRSRSCAYGV and PRSSHHPLPSPP are within error of each other in protein stability index: 0.734 ± 0.073 for the first, 0.676 ± 0.071 for the second.

VKTLNQKCIKKN and FYPLPSYFAYPI are within error of each other in protein stability index: 0.719 ± 0.062 for the first, 0.663 ± 0.022 for the second.

GAVVLSRFRCLP and PLHLPPFRPSPR are within error of each other in protein stability index: 0.639 ± 0.035 for the first, 0.676 ± 0.12 for the second.

YPCPPLLISSPP and FIRDKQTSFDIR are within error of each other in protein stability index: 0.709 ± 0.051 for the first, 0.68036 ± 0.00024 for the second.

Compared with PLWHCFRFLSGS, GGGGFQVAVGCR is higher in protein stability index: 0.607 ± 0.014 for the first, 0.714 for the second.

AIRIERLGLAIP and LAPPLILLPFVD are within error of each other in protein stability index: 0.682 ± 0.033 for the first, 0.699 ± 0.033 for the second.

Going from PIGAFLSFWGQW to SPRVKEVSREIR, the protein stability index falls from 0.828 ± 0.087 to 0.689 ± 0.045.

Going from YRPLEQLLSLSH to PPPPPPLSPSPP, the protein stability index rises from 0.651 ± 0.08 to 0.756 ± 0.011.

First: LAWLGLHERTLF
Second: RLLKRAVRKIFT
The protein stability index of the first is higher: 0.685 ± 0.0077 for the first, 0.61808 ± 0.00049 for the second.

ASGSSVSFQVSF and RPPPPRLTPPRL are within error of each other in protein stability index: 0.65 ± 0.069 for the first, 0.756 ± 0.084 for the second.

Compared with QRRARVSDISVY, FRVFLGHLITRK is higher in protein stability index: 0.634 ± 0.012 for the first, 0.727 ± 0.039 for the second.

NMIIPEAVSLSL and VCTPCEFIRTQG are within error of each other in protein stability index: 0.672 ± 0.026 for the first, 0.697 ± 0.036 for the second.

First: RPLAVPPRPSPV
Second: SLRLFVPVYPPP
The protein stability index of the first is higher: 0.729 ± 0.049 for the first, 0.576 ± 0.078 for the second.

PSGLRNAHRHRT and RLKFMTGLFLWS are within error of each other in protein stability index: 0.719 ± 0.013 for the first, 0.73 ± 0.019 for the second.

LVRLVGVGLEAV and PFAPPPRPGPFP are within error of each other in protein stability index: 0.694 ± 0.055 for the first, 0.697 ± 0.085 for the second.

Going from DSCQALIWLVFT to GDLYWLRNAMSL, the protein stability index rises from 0.586 ± 0.021 to 0.731 ± 0.012.

PVPPAPASPPTG and LATDVGHRLLGI are within error of each other in protein stability index: 0.742 ± 0.06 for the first, 0.707 ± 0.042 for the second.

KISNRNKRTNRK and LLPLRPRSLGPP are within error of each other in protein stability index: 0.689 ± 0.077 for the first, 0.693 ± 0.0011 for the second.

NKTRRCTAHVGG and PPPPPPPLPSLR are within error of each other in protein stability index: 0.679 ± 0.054 for the first, 0.671 ± 0.0086 for the second.

HSSHPRPHRTLI and GRGGWVHRRIGA are within error of each other in protein stability index: 0.661 ± 0.012 for the first, 0.676 ± 0.035 for the second.

Going from ERSRRVSNIMVL to PDSIVACGPVGR, the protein stability index rises from 0.48 ± 0.095 to 0.702 ± 0.043.

First: PLTTTPPTRHTP
Second: GHVPIWPFLSLS
The protein stability index of the first is higher: 0.6978 ± 0.004 for the first, 0.6664 ± 0.0042 for the second.

TFRADGYFFGRR and HPSPPAPAPLYP are within error of each other in protein stability index: 0.637 ± 0.042 for the first, 0.667 ± 0.11 for the second.

QEPDARYGPGRT and YLGFRADVVFGK are within error of each other in protein stability index: 0.692 ± 0.12 for the first, 0.712 ± 0.063 for the second.

PPHPPAPHPSPT and KKKKKLKERRKI are within error of each other in protein stability index: 0.733 ± 0.069 for the first, 0.668 ± 0.019 for the second.

LQWSPQAELEGT and RGCSGGVVDWIG are within error of each other in protein stability index: 0.712 ± 0.043 for the first, 0.679 ± 0.017 for the second.

First: VFTGVGFVPLVC
Second: ARLPTYLAAPPP
The protein stability index of the first is lower: 0.5757 ± 0.0034 for the first, 0.726 ± 0.089 for the second.

APDPARPSTRPL and GWRGDTSGGGWR are within error of each other in protein stability index: 0.6892 ± 0.0058 for the first, 0.655 ± 0.03 for the second.

CLVKSNVCVAPG and LSFLSDVRHIRE are the same in protein stability index: 0.643 ± 0.12 for the first, 0.643 ± 0.1 for the second.

PLPLLPTNPSPP and SFSPSVLSREVS are within error of each other in protein stability index: 0.636 ± 0.0096 for the first, 0.66 ± 0.066 for the second.

WDGWWGGAGVGE and AGGGLGAEGCGG are within error of each other in protein stability index: 0.695 ± 0.077 for the first, 0.788 ± 0.038 for the second.

LWFPLCRLVRRD and RLVRSPSRFSWR are within error of each other in protein stability index: 0.682 ± 0.025 for the first, 0.667 ± 0.031 for the second.

Work on QMKRPSCKGTCD yielded a protein stability index of 0.679 ± 0.044.
